These results are taken from patent US20190338048A1.

Assay [1] has as its target CAT-2200 Fab heavy chain L143D_K145T. The experiment in a line: LCCA.
Assay [2] concerns the target CAT-2200 Fab heavy chain S186K. Nature of the assay: LCCA.
Assay [3] has as its target CAT-2200 Fab heavy chain L143A_Q179K. The experiment in a line: LCCA.
The target is the same in assay [4]. The experiment in a line: LCCA. This is another data set of the same source.
Assay [5] has as its target CAT-2200 Fab heavy chain Q179K. Nature of the assay: LCCA.
For assay [6], the target named is CAT-2200 lambda light chain K129T_V133D_L135S. Nature of the assay: LCCA, SPR tag read-out.
The target of assay [7] is Pertuzumab kappa light chain S131K_L135K. Nature of the assay: LCCA, SPR tag read-out.
The target in assay [8] is Pertuzumab kappa light chain S121K_S131K_L135K. Nature of the assay: LCCA, SPR tag read-out.
In assay [9] the target is Pertuzumab kappa light chain S131R_V133G_L135W_S176R. Nature of the assay: LCCA, SPR tag read-out.
The target of assay [10] is Pertuzumab kappa light chain S131R_V133G_S176R. The experiment in a line: LCCA, SPR tag read-out.
The target in assay [11] is Pertuzumab kappa light chain S131K_V133G_S176R. The experiment in a line: LCCA, SPR tag read-out.
Assay [12] concerns the target CAT-2200 lambda light chain K129T_V133D_Y178T. The experiment in a line: LCCA, SPR tag read-out.
The target in assay [13] is CAT-2200 lambda light chain V133D_Y178T. Nature of the assay: LCCA, SPR tag read-out.
For assay [14], the target named is CAT-2200 lambda light chain K129T_T131D_V133D. The experiment in a line: LCCA, SPR tag read-out.
Assay [15] addresses Pertuzumab kappa light chain S131K_V133G_S176R. Nature of the assay: LCCA, SPR tag read-out. The source holds these as a separate data set.
The target of assay [16] is Pertuzumab kappa light chain S131R_V133G_L135W_S176R. The experiment in a line: LCCA, SPR tag read-out. This is another data set of the same source.
The target in assay [17] is Pertuzumab kappa light chain S131R_V133G_S176R. Nature of the assay: LCCA, SPR.
Assay [18] deals with Pertuzumab kappa light chain S131K_V133G_S176R. The experiment in a line: LCCA, SPR.
Assay [19] addresses Pertuzumab kappa light chain S131R_V133G_L135W_S176R. Nature of the assay: LCCA, SPR tag read-out. The source holds these as a separate data set.
Assay [20] concerns the target CAT-2200 lambda light chain K129T_V133D. Nature of the assay: LCCA, SPR.
Assay [21] concerns the target Pertuzumab kappa light chain S131R_V133G_S176R. Nature of the assay: LCCA, SPR. This is another data set of the same source.
In assay [22] the target is Pertuzumab kappa light chain S131K_V133G_S176R. The experiment in a line: LCCA, SPR. The source holds these as a separate data set.
For assay [23], the target named is CAT-2200 lambda light chain K129T_V133D. The experiment in a line: LCCA, SPR. This is another data set of the same source.
Assay [24] addresses Pertuzumab kappa light chain S121K_S131R_V133G_S176R. Nature of the assay: LCCA, SPR tag read-out.
Assay [25] has the same target. The experiment in a line: LCCA, SPR tag read-out. The source holds these as a separate data set.
The target in assay [26] is CAT-2200 lambda light chain S122D_K129T_V133D. Nature of the assay: LCCA, SPR tag read-out.
In assay [27] the target is CAT-2200 lambda light chain S122D_K129T_V133D_Y178T. Nature of the assay: LCCA, SPR tag read-out.
Assay [28] deals with CAT-2200 lambda light chain S122D_V133D_Y178T. The experiment in a line: LCCA, SPR tag read-out.
Assay [29] addresses Pertuzumab kappa light chain S121K_S131R_V133G_S176R. Nature of the assay: LCCA, SPR tag read-out. This is another data set of the same source.
The target of assay [30] is Pertuzumab kappa light chain S121K_V133G_S176D_T180E. Nature of the assay: LCCA, SPR tag read-out.
Assay [31] has the same target. Nature of the assay: LCCA, SPR tag read-out. The source holds these as a separate data set.
The target of assay [32] is CAT-2200 lambda light chain S122D_Y178K. Nature of the assay: LCCA, SPR tag read-out.
Assay [33] has as its target Pertuzumab kappa light chain S121K_V133G_S176D_T180E. The experiment in a line: LCCA, SPR tag read-out. The source holds these as a separate data set.
Assay [34] deals with Pertuzumab kappa light chain Q124R_T178R. The experiment in a line: LCCA, SPR tag read-out.
Assay [35] deals with Pertuzumab kappa light chain Q124R_L135W_T178R. The experiment in a line: LCCA, SPR tag read-out.
The target in assay [36] is Pertuzumab kappa light chain Q124R_L135W_Q160K_T178R. The experiment in a line: LCCA, SPR tag read-out.
Assay [37] deals with Pertuzumab kappa light chain Q124R_Q160R_T178R. The experiment in a line: LCCA, SPR tag read-out.
The target in assay [38] is Pertuzumab kappa light chain Q124R_T178R. Nature of the assay: LCCA, SPR tag read-out. The source holds these as a separate data set.
In assay [39] the target is Pertuzumab kappa light chain Q124R_Q160R_T178R. Nature of the assay: LCCA, SPR tag read-out. This is another data set of the same source.
In assay [40] the target is Pertuzumab kappa light chain Q124R_L135W_T178R. The experiment in a line: LCCA, SPR tag read-out. This is another data set of the same source.
Assay [41] concerns the target Pertuzumab kappa light chain Q124R_T178R. Nature of the assay: LCCA, SPR tag read-out. The source holds these as a separate data set.
In assay [42] the target is Pertuzumab kappa light chain Q124R_L135W_Q160K_T178R. Nature of the assay: LCCA.
Assay [43] has as its target Pertuzumab kappa light chain Q124R_T178R. Nature of the assay: LCCA, SPR tag read-out. The source holds these as a separate data set.
Assay [44] deals with Pertuzumab kappa light chain Q124R_L135W_T178R. The experiment in a line: LCCA, SPR tag read-out. The source holds these as a separate data set.
Assay [45] has as its target Pertuzumab kappa light chain Q124R_T178R. Nature of the assay: LCCA, SPR tag read-out. The source holds these as a separate data set.
Assay [46] has as its target CAT-2200 lambda light chain T116F_K129T_V133D_S176F. The experiment in a line: LCCA, SPR tag read-out.
Assay [47] deals with Pertuzumab kappa light chain Q124R_L135A_T178R. Nature of the assay: LCCA, SPR tag read-out.
In assay [48] the target is Pertuzumab kappa light chain Q124R_L135A_Q160K_T178R. The experiment in a line: LCCA.
Assay [49] has as its target Pertuzumab kappa light chain Q124K_L135A_T178R. The experiment in a line: LCCA.
The target of assay [50] is CAT-2200 lambda light chain S122D_E124Q_T131R. The experiment in a line: LCCA, SPR tag read-out.
Assay [51] deals with Pertuzumab kappa light chain S121K_V133I_S176D_T178E. The experiment in a line: LCCA, SPR tag read-out.
Assay [52] deals with Pertuzumab kappa light chain S121K_S131D_V133G_T178F. Nature of the assay: LCCA, SPR tag read-out.
Assay [53] addresses CAT-2200 lambda light chain S122D_E124Q_T131R. The experiment in a line: LCCA, SPR tag read-out. This is another data set of the same source.
Assay [54] has as its target Pertuzumab kappa light chain S121K_S176E_T178E. Nature of the assay: LCCA.
The target in assay [55] is Pertuzumab kappa light chain V133I_L135A_S176D_T178E. The experiment in a line: LCCA, SPR tag read-out.
Assay [56] deals with CAT-2200 lambda light chain S176K_Y178K (L1), N-terminal FLAG tag. The experiment in a line: LCCA, SPR of light chain tags.
The target in assay [57] is Pertuzumab kappa light chain V133L_S176D_T178E (L2), N-terminal HA tag. The experiment in a line: LCCA, SPR of light chain tags.
Assay [58] addresses Pertuzumab kappa light chain V133I_S176E_T178E (L2), N-terminal HA tag. The experiment in a line: LCCA, SPR of light chain tags.
The target of assay [59] is CAT-2200 lambda light chain S176K_Y178K (L1), N-terminal FLAG tag. Nature of the assay: LCCA, SPR of light chain tags. The source holds these as a separate data set.
Assay [60] has as its target Pertuzumab kappa light chain V133I_S176E_T178E (L2), N-terminal HA tag. The experiment in a line: LCCA, SPR of light chain tags. This is another data set of the same source.
Assay [61] deals with Pertuzumab kappa light chain V133L_S176D_T178E (L2), N-terminal HA tag. The experiment in a line: LCCA, SPR of light chain tags. This is another data set of the same source.
The target in assay [62] is Pertuzumab kappa light chain V133I_S176D_T178E (L2), N-terminal HA tag. Nature of the assay: LCCA, SPR of light chain tags.

Read-outs that look alike come from different tables or passages of the source.

The substance “CAT-2200 lambda light chain E124Q_T131K_V133S” gave an H1L1:H1L2 median scalar value (ln(H1L1:H1L2)) in assay [1] of 0.54.

In assay [2], “CAT-2200 lambda light chain K129T_V133D_Y178T” had an H1L1:H1L2 median scalar value (ln(H1L1:H1L2)) of 0.06.

As to “CAT-2200 lambda light chain K129T_V133W_S180E”, the H1L1:H1L2 median scalar value (ln(H1L1:H1L2)) stood at 0.88 in [3] and 1.51 in [4].

Consider “CAT-2200 lambda light chain K129T_Y178E_S180E”, for which the H1L1:H1L2 median scalar value (ln(H1L1:H1L2)) in [5] turned out to be 0.89.

As to “Pertuzumab Fab heavy chain L124E_A139I_K145T_V190I”, the H2L2:H2L1 normalized median ratio came to 39% in [6] and 61% in assay [7]. The H2L2:H2L1 median scalar value in assay [7] is 0.48 ln(ratio).

As for “Pertuzumab Fab heavy chain L124E_A139I_K145T_V190I_K228D”, the H2L2:H2L1 median scalar value in assay [8] was 0.25 ln(ratio).

Turning to “Pertuzumab Fab heavy chain L124E_K145T_Q179E”, the H2L2:H2L1 median scalar value was 1.71 ln(ratio) in [9]; 4.11 ln(ratio) in assay [10]; 3.26 ln(ratio) in [11]; 3.71 ln(ratio) in [15]; 2.31 ln(ratio) in [16]; 1.7 ln(ratio) in assay [19]. Besides, the H2L2:H2L1 normalized median ratio turned out to be 16% in [12]; 16% in assay [13]; 4% in assay [14]; 8% in [20]; 4% in assay [23]. For the same substance, the H2L2:H2L1 normalized median scalar value ln(r1/f1) worked out at 2.72 in assay [17], 2.18 in assay [18], 3.12 in [21] and 2.38 in assay [22].

Regarding “Pertuzumab Fab heavy chain L124E_K145T_Q179E_K228D”, the H2L2:H2L1 median scalar value in [24] was 3.08 ln(ratio); in [25] it was 1.9 ln(ratio); in assay [29], 2.42 ln(ratio). Moreover, the H2L2:H2L1 normalized median ratio in assay [24] came to 95%; in assay [25], 86%; in assay [26], 5%; in [27] it was 8%; in assay [28] it was 14%; in assay [29], 92%.

As to “Pertuzumab Fab heavy chain L124R_S186R_K228D”, the figures for the H2L2:H2L1 median scalar value in [30], in assay [31] and in [33] were -0.49 ln(ratio), 1.83 ln(ratio) and -0.52 ln(ratio), respectively. Moreover, the H2L2:H2L1 normalized median ratio turned out to be 66% in [31] and 34% in assay [32].

As to “Pertuzumab Fab heavy chain L143E_K145T_Q179E”, the H2L2:H2L1 median scalar value in assay [34] was 3.1 ln(ratio); in assay [35], 2.64 ln(ratio); in [36], 2.02 ln(ratio); in assay [37], 2.79 ln(ratio); in assay [38], 3.52 ln(ratio); in assay [39], 2.58 ln(ratio). In addition, the H2L2:H2L1 median scalar value in assay [40] was 2.68 ln(ratio); in assay [41] it was 2.74 ln(ratio); in assay [42], 0.77 ln; in assay [43], 3.63 ln(ratio); in assay [44], 2.54 ln(ratio); in [45], 3.01 ln(ratio).

Take “Pertuzumab Fab heavy chain L143E_K145T_Q179E_V190F”: the figures for the H2L2:H2L1 normalized median ratio in assay [46] and in assay [47] were 27% and 73%, respectively. The results for the H2L2:H2L1 median scalar value in [47], in assay [48] and in [49] were 0.99 ln(ratio), -0.29 ln and -0.51 ln, respectively.

Consider Pertuzumab Fab heavy chain S188K_K228D, for which the H2L2:H2L1 normalized median ratio is 15% in [50], 85% in assay [51], 47% in [52] and 53% in [53]. The H2L2:H2L1 median scalar value in assay [51] was 1.74 ln(ratio); in [52] it was -0.08 ln(ratio); in assay [54], 2.83 ln.

With Pertuzumab Fab heavy chain S188K_V190F, the H2L2:H2L1 median scalar value in assay [55] was 0.88 ln(ratio).

Turning to “Pertuzumab Fab heavy chain V177I_S188K (H2), ABD2-His6 tagged”, the H2L2:H2L1 normalized median ratio amounted to 9% in [56], 9% in assay [59], 91% in [61] and 91% in assay [62]. The H2L2:H2L1 normalized median scalar value ln(r1/f1) came out at 0.55 in [57]; 2.79 in assay [58]; 2.83 in [60]; 2.37 in assay [61]; 2.34 in assay [62].
